According to paper PMC4822561, “Structure of a quinolone-stabilized cleavage complex of topoisomerase IV from Klebsiella pneumoniae and comparison with a related Streptococcus pneumoniae complex” (Acta Crystallographica. Section D, Structural Biology, 2016):

B3: S. pneumoniae topoisomerase IV ParC55 (domain or fragment)
chain: MSNIQNMSLEDIMGERFGRYSKYIIQDRALPDIRDGLKPVQRRILYSMNKDSNTFDKSYRKSAKSVGNIMGNFHPHGDSSIYDAMVRMSQNWKNREILVEMHGNNGSMDGDPPAAMRYTEARLSEIAGYLLQDIEKKTVPFAWNFDDTEKEPTVLPAAFPNLLVNGSTGISAGYATDIPPHNLAEVIDAAVYMIDHPTAKIDKLMEFLPGPDFPTGAIIQGRDEIKKAYETGKGRVVVRSKTEIEKLKGGKEQIVITEIPYEINKANLVKKIDDVRVNNKVAGIAEVRDESDRDGLRIAIELKKDANTELVLNYLFKYTDLQINYNFNMVAIDNFTPRQVGIVPILSSYIAHRREVILARSRFDKEKAEKRLHIVEGLIRVISILDEVIALIRASENKADAKENLKVSYDFTEEQAEAIVTLQLYRLTNTDVVVLQEEEAELREKIAMLAAIIGDERTMYNLMKKELREVKKKFATPRLSSLEDTAKALE
notes: ParC breakage-reunion domain (ParC55), S. pneumoniae isolate 7785 (St George's Hospital); two residues between ParC and the His6 tag; also called ParC N-terminal domain; ParC subunit; source: E. coli BL21(λDE3) pLysS, pET-29a (C-terminal His6); purification protocol in the Supporting Information

Assays:
[1] = target: the molecule itself; assay: crystal structure; K. pneumoniae ParE-ParC fusion (4.5 mg/ml) co-crystallised with pre-cut 34-mer E-site DNA (1:1.2 protein:DNA), 2 mM levofloxacin, 10 mM MgCl2; vapour diffusion, 298 K; 3.35 Å, space group P2(1)
[2] = target: B3; assay: crystal structure; S. pneumoniae ParC55:ParE30:18-mer E-site DNA 1:1:1.2 at 4 mg/ml, 2 mM levofloxacin, 10 mM MgCl2; capillary counter-diffusion, 304 K; 2.9 Å, space group P3(1)21; conditions: both partners purified
[3] = target: the molecule itself; assay: as above

B1: K. pneumoniae topoisomerase IV ParC breakage-reunion domain (ParC55; residues 1–490) (domain or fragment, K. pneumoniae (strain ATCC 35657))
chain: MSDMAERLALHEFTENAYLNYSMYVIMDRALPFIGDGLKPVQRRIVYAMSELGLNASAKFKKSARTVGDVLGKYHPHGDSACYEAMVLMAQPFSYRYPLGDGQGNWGAPDDPKSFAAMRYTESRLSKYAELLLSELGQGTVDWVPNFDGTLQEPKMLPARLPNILLNGTTGIAVGMATDIPPHNLREVAKAAITLIEQPKTTLDELLDIVQGPDFPTEAEIITSRAEIRKIYQNGRGSVRMRAVWSKEDGAVVITALPHQVSGAKVLEQIAAQMRNKKLPMVDDLRDESDHENPTRLVIVPRSNRVDMEQVMNHLFATTDLEKSYRINLNMIGLDGRPAVKNLLEILSEWLVFRRDTVRRRLNHRLEKVLKRLHILEGLLVAFLNIDEVIEIIRTEDEPKPALMSRFGISETQAEAILELKLRHLAKLEEMKIRGEQSELEKERDQLQAILASERKMNNLLKKELQADADAFGDDRRSPLHEREEAKAMS
notes: ParC breakage-reunion domain (ParC55), K. pneumoniae strain ATCC 35657, residues 1-490; In the crystal this stretch was joined on one chain with ParE 390-631 (see m1: M-ParE(390-631)-EF-ParC(1-490)-His6); written alone for the pair rows; also called ParC NTD 1–490; ParC subunit; source: E. coli BL21(λDE3) pLysS, pET-29a; purification protocol in the Supporting Information
[1]
  stoichiometry N: 2

B2: S. pneumoniae topoisomerase IV ParE30 (domain or fragment)
chain: KNKKDKGLLSGKLTPAQSKNPAKNELYLVEGDSAGGSAKQGRDRKFQAILPLRGKVINTAKAKMADILKNEEINTMIYTIGAGVGADFSIEDANYDKIIIMTDADTDGAHIQTLLLTFFYRYMRPLVEAGHVYIALPPLYKMSKGKGKKEEVAYAWTDGELEELRKQFGKGATLQRYKGLGEMNADQLWETTMNPETRTLIRVTIEDLARAERRVNVLMGDKVEPRRKWIEDNVKFTLEEATVF
notes: ParE TOPRIM domain (ParE30), S. pneumoniae isolate 7785 (St George's Hospital); the limits fit the printed Glu474 and Glu475; also called ParE C-terminal domain; ParE TOPRIM domain; source: E. coli BL21(λDE3) pLysS, pET-19b (N-terminal His10); purification protocol in the Supporting Information
[2]
  binding result: binds

## B3
[3]
  binding result: binds
